What all share (details): glycan lost; control: wild type APP-SNAP
The nature of series [1]: Aβ42 ELISA of cell lysate (intracellular). For orientation: An ELISA detects its analyte on a solid surface through an enzyme-linked reagent.
Series [2] in a line: live-cell confocal colocalisation with SiR-lysosome.
The nature of series [3]: confocal imaging, size of APP-SNAP-positive vesicles.
A short description of series [4]: Aβ42 ELISA of culture medium (secreted).
A short description of series [5]: confocal colocalisation with Golgi marker GRASP65.
Series [6] in a line: confocal, plasma-membrane share of total APP-SNAP intensity per cell.
Series [7] can be described thus: confocal, fraction of cells with plasma-membrane APP-SNAP.
Series [8] in a line: Airyscan colocalisation with early endosome marker EEA1.

As to “amyloid precursor protein (hAPP695-SNAP): N467Q”, the “other: proteolytic processing” value in series [1] and in series [4] was “increases” in each case. Besides, the localisation_or_trafficking entry is listed as “decreases” in series [2]; “decreases” in series [3]; “no change” in series [5]; “decreases” in series [6]; “no change” in series [8]. In addition, in series [7], the “localisation_or_trafficking, other: percent of cells with APP-SNAP in plasma membrane” value is given as “decreases, 11.8 vs 35.3”.

In the case of “amyloid precursor protein (hAPP695-SNAP): N496Q”, the “other: proteolytic processing” value in series [1] and in series [4] was “increases” in each case. Also, the localisation_or_trafficking entry in series [2] is listed as “decreases”; in series [3], “decreases”; in series [5], “no change”; in series [6] it was “decreases”; in series [8], “no change”. Also, in series [7], the “localisation_or_trafficking, other: percent of cells with APP-SNAP in plasma membrane” value is reported as “decreases, 9.8 vs 35.3”.

The record behind these values is PMC9132248.
